T1: cystic fibrosis transmembrane conductance regulator (CFTR) inhibitory factor (Cif) (Pseudomonas aeruginosa)
T1 chain: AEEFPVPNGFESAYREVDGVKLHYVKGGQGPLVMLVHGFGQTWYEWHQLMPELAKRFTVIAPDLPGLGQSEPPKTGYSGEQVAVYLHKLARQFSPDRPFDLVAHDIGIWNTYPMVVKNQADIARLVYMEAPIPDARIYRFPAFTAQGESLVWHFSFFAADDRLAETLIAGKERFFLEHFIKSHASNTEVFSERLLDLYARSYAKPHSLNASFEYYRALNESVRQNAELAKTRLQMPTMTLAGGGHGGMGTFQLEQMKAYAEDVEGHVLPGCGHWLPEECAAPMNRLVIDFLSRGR

B1: VHH CLONE 103 (VHH)
VHH: EVQLMESAGGLVRPGGSLRLSCVASGSIGDIYSMGWYRQAPGKQRELVATVGAGGLTDYGDSVLGRFTISRDKTKGTVSLEMNSLKPEDTAVYYCNADVSIGPTGLRVYWGQGTQVTVSS
B2: VHH CLONE 320 (VHH)
VHH: DVQLQASGGGLVQPGGSLRLSCATSTSVFSITTLGWYRQAPGKQRELVASMKRGGDTNYADSVKGRFTISRDNARNTVFLQMNNLTTEDTAVYYCNAAILAYTGAVTNYWGQGTQVTVSS
B3: VHH CLONE 205 (VHH)
VHH: DVQLQASGGGLVQPGGSLRLSCAATGSTDRIAFMGWYRQAPGKLRELVAGITSDGRTNYADDVDVSGRFTISRDSAKNMVYLQMNSLKPEDTAVYYCNADITLAMGGLRVYWGQGTQVTVSS
B4: VHH CLONE 108 (VHH)
VHH: EVQLVESGGGLVQPGGSLRLSCEATGNFDDRGIGWFRQAPGKEREGIACITTRGRTHYAESVEGRFTISTDIANNAVYLQMNSLKPEDTAVYYCAKAIRLTTDRTQCVAFPGVSWGRGTQVTVSS
B5: VHH CLONE 213 (VHH)
VHH: EVQLVESVGGLVQPGGSLRLSCVASGNIGDIYTMGWYRQAPGKQRELVATVGDGGLTNFVDSVKGRFTISRDKSKGTVSLEMNSLKPEDTAVYYCNADVRIGPTGLRVYWGQGTQVTVSS
B6: VHH CLONE 302 (VHH)
VHH: QVKLQESGGGLVQPGGSLRLSCVASGNIGDIYTMGWYRQAPGKQRELVATVGDGGLTNFVDSVKGRFTISRDKSKGTVSLEMNSLKPEDTAVYYCNADVRIGPTGLRVYWGQGTQVTVSS
B7: VHH CLONE 220 (VHH)
VHH: EVQLVESGGGLVQPGGSLRLSCVASGNIGNIYTMGWYRQAPGKQRELVAAVGAGELTNYVDSVKGRFTISRDKSKGTVSLEMNSLKPEDTAVYYCNADVSIGPTGLRVYWGQGTQVTVSS
B8: VHH CLONE 116 (VHH)
VHH: EVQLVESGGGLVQPGGSLRLSCTASGSILKIYTMDWYRQAPGKQRDLVATVSSRGDTDYTDSVKGRFTISRDDAKNTAYLQMSSLKPEDTAVYYCNFYIQSRTAPFNDYWGQGTQVTVSS

How the values were obtained:
[1] = target: cystic fibrosis transmembrane conductance regulator (CFTR) inhibitory factor (Cif) (Pseudomonas aeruginosa); experiment: cell-based or functional assay
[2] = target: T1, cystic fibrosis transmembrane …; experiment: sandwich ELISA

Row | Binder | IC50 [2] [µg/mL] | other results
1 | B1 | 0.0168 | % inhibition of Cif activity, [nab] tested 0.5 mg/mL [1]: 2%
2 | B2 | 0.0061 | % inhibition of Cif activity, [nab] tested 0.23 mg/mL [1]: 9%
3 | B3 | 0.0207 | % inhibition of Cif activity, [nab] tested 0.125 mg/mL [1]: 0%
4 | B4 | 0.0098 | % inhibition of Cif activity, [nab] tested 0.275 mg/mL [1]: 19%
5 | B5 | 0.011 | % inhibition of Cif activity, [nab] tested 0.55 mg/mL [1]: 0%
6 | B6 | 0.0172 | % inhibition of Cif activity, [nab] tested 0.5 mg/mL [1]: 0%
7 | B7 | 0.0211 | % inhibition of Cif activity, [nab] tested 0.475 mg/mL [1]: 0%
8 | B8 | 0.0312 | % inhibition of Cif activity, [nab] tested 0.275 mg/mL [1]: 11%

— US20200231659A1 (published 2020)
